According to FireProtDB (doi:10.1016/s0167-4838(99)00132-6):

Conditions: Escherichia coli (strain K12), Thermal, DSC, KH2PO4-KOH 10 mM, reversible: no, whole UniProt chain shown

B1: Glyceraldehyde-3-phosphate dehydrogenase A wild type, P0A9B2 (protein)
chain: MTIKVGINGFGRIGRIVFRAAQKRSDIEIVAINDLLDADYMAYMLKYDSTHGRFDGTVEVKDGHLIVNGKKIRVTAERDPANLKWDEVGVDVVAEATGLFLTDETARKHITAGAKKVVMTGPSKDNTPMFVKGANFDKYAGQDIVSNASCTTNCLAPLAKVINDNFGIIEGLMTTVHATTATQKTVDGPSHKDWRGGRGASQNIIPSSTGAAKAVGKVLPELNGKLTGMAFRVPTPNVSVVDLTVRLEKAATYEQIKAAVKAAAEGEMKGVLGYTEDDVVSTDFNGEVCTSVFDAKAGIALNDNFVKLVSWYDNETGYSNKVLDLIAHISK
pH 6
  Tm: 75.3 °C
  unfolding enthalpy (calorimetric): 908 kcal/mol
pH 8
  Tm: 72.6 °C
  unfolding enthalpy (calorimetric): 1080 kcal/mol
